Each binder was assayed against HLA-A*24 (human) (assay: UV peptide-exchange ELISA, yield grade).

First: AYLHSHALI [… (SEQ ID NO: 274)]
Second: VYRDETGELF [… (SEQ ID NO: 226)]
The peptide exchange yield of the first is higher: over 75% for the first, 50 to 75% for the second.

RYPDNLKHLYL [… (SEQ ID NO: 280)] and TYELRYFQI [… (SEQ ID NO: 204)] cannot be ordered by peptide exchange yield: over 75% for the first, over 75% for the second.

VYTLDIPVL [… (SEQ ID NO: 160)] and KYTSWYVAL [… (SEQ ID NO: 228)] cannot be ordered by peptide exchange yield: over 75% for the first, over 75% for the second.

TYKDEGNDYF [… (SEQ ID NO: 209)] and EYSLFPGQVVI [… (SEQ ID NO: 197)] fall in the same range of peptide exchange yield: 50 to 75% for the first, 50 to 75% for the second.

IFLDYEAGTLSF [… (SEQ ID NO: 227)] and YYEVHKELF [… (SEQ ID NO: 175)] cannot be ordered by peptide exchange yield: over 75% for the first, over 75% for the second.

First: DYLKGLASF [… (SEQ ID NO: 163)]
Second: EYPLVINTL [… (SEQ ID NO: 219)]
The peptide exchange yield of the first is higher: over 75% for the first, 50 to 75% for the second.

Compared with LYNKGFIYL [… (SEQ ID NO: 159)], TYIESASEL [… (SEQ ID NO: 279)] is lower in peptide exchange yield: over 75% for the first, 50 to 75% for the second.

AYTLIAPNI [… (SEQ ID NO: 169)] and IYATEAHVF [… (SEQ ID NO: 201)] fall in the same range of peptide exchange yield: 50 to 75% for the first, 50 to 75% for the second.

First: RYAEEVGIF [… (SEQ ID NO: 199)]
Second: DYTTWTALL [… (SEQ ID NO: 165)]
The peptide exchange yield of the first is lower: 50 to 75% for the first, over 75% for the second.

KFVDSTFYL [… (SEQ ID NO: 282)] and KYMVYPQTF [… (SEQ ID NO: 267)] cannot be ordered by peptide exchange yield: over 75% for the first, over 75% for the second.

QYLENLEKL [… (SEQ ID NO: 224)] and LFIPSSKLLFL [… (SEQ ID NO: 171)] fall in the same range of peptide exchange yield: 50 to 75% for the first, 50 to 75% for the second.

IYLVSIPEL [… (SEQ ID NO: 161)] and KYQDILETI [… (SEQ ID NO: 168)] cannot be ordered by peptide exchange yield: over 75% for the first, over 75% for the second.

YYVYIMNHL [… (SEQ ID NO: 225)] and EYINQGDLHEF [… (SEQ ID NO: 275)] fall in the same range of peptide exchange yield: 50 to 75% for the first, 50 to 75% for the second.

First: RYLNKAFHI [… (SEQ ID NO: 284)]
Second: KYPVEWAKF [… (SEQ ID NO: 289)]
The peptide exchange yield of the first is lower: 50 to 75% for the first, over 75% for the second.

YYKSTSSAF [… (SEQ ID NO: 218)] and LYIDRPLPYL [… (SEQ ID NO: 196)] fall in the same range of peptide exchange yield: 50 to 75% for the first, 50 to 75% for the second.

First: VYVGGGQIIHL [… (SEQ ID NO: 174)]
Second: HYSQELSLLYL [… (SEQ ID NO: 158)]
The peptide exchange yield of the first is lower: 50 to 75% for the first, over 75% for the second.

YYVESGKLF [… (SEQ ID NO: 166)] and QYLQDAYSF [… (SEQ ID NO: 272)] cannot be ordered by peptide exchange yield: over 75% for the first, over 75% for the second.

Compared with VYGFQWRHF [… (SEQ ID NO: 276)], YYGPSLFLL [… (SEQ ID NO: 200)] is lower in peptide exchange yield: over 75% for the first, 50 to 75% for the second.

Compared with KFSSFSLFF [… (SEQ ID NO: 164)], RYISDQLFTNF [… (SEQ ID NO: 278)] is higher in peptide exchange yield: 50 to 75% for the first, over 75% for the second.

First: VYWDSAGAAHF [… (SEQ ID NO: 202)]
Second: RYPDNLKHL [… (SEQ ID NO: 286)]
The peptide exchange yield of the first is higher: over 75% for the first, 20 to 49% for the second.

TYIKPISKL [… (SEQ ID NO: 273)] and VYVSDIQEL [… (SEQ ID NO: 288)] fall in the same range of peptide exchange yield: 50 to 75% for the first, 50 to 75% for the second.

First: EYNQWFTKL [… (SEQ ID NO: 176)]
Second: LYHDIFSRL [… (SEQ ID NO: 271)]
The peptide exchange yield of the first is lower: 50 to 75% for the first, over 75% for the second.

RYSTGLAGNLL [… (SEQ ID NO: 221)] and TFSVSSHLF [… (SEQ ID NO: 222)] fall in the same range of peptide exchange yield: 50 to 75% for the first, 50 to 75% for the second.

First: NYINRILKL [… (SEQ ID NO: 167)]
Second: VFTRVSSFL [… (SEQ ID NO: 162)]
The peptide exchange yield of the first is higher: over 75% for the first, 50 to 75% for the second.

Compared with TYSVSFPMF [… (SEQ ID NO: 195)], VYEDQVGKF [… (SEQ ID NO: 170)] is lower in peptide exchange yield: over 75% for the first, 20 to 49% for the second.

First: IYSWILDHF [… (SEQ ID NO: 173)]
Second: AYVVFVSTL [… (SEQ ID NO: 207)]
The peptide exchange yield of the first is higher: over 75% for the first, 20 to 49% for the second.

TYGDAGLTYTF [… (SEQ ID NO: 283)] and KYIPYKYVI [… (SEQ ID NO: 223)] fall in the same range of peptide exchange yield: 50 to 75% for the first, 50 to 75% for the second.

— US20170165339A1
